Legend:
PRC2 [1] = target: T1, PRC2 (Homo sapiens, UniProt Q15910); assay: in vitro PRC2 histone methyltransferase reactions with H3 peptides added in trans; type: biochemical; details: for effect on PRC2 activity relative to the no peptide control: H3 peptides (18-37) in trans, purified wildtype mononucleosomes (FIG. 3A)
T1 construct: Mono Q fractions containing stoichiometric components of PRC2 were pooled; made in house; FLAG-M2 immunoprecipitation from nuclear extract, then Mono Q
Experimental: Human EED protein containing an N-terminal FLAG-epitope was cloned in pCDH-EF1alpha-IRES-Puro (System Biosciences). Resulting lentivirus were used to establish stable 293T and Hela cell lines that express FLAG-hEED. Nuclear extracts were prepared from washed cell pellets as previously described (Lewis et al., “Daxx is an H3.3-specific Histone Chaperone and Cooperates with ATRX in Replication-Independent Chromatin Assembly at Telomeres,” Proc Natl Acad Sci USA 107: 14075-14080 (2010), which is hereby incorporated by reference in its entirety). FLAG-M2 immunoprecipitation of clarified nuclear extract was performed, followed by washing (250 mM KCl) and elution with 3XFLAG peptide (400 ng/μL). Eluate from the FLAG M2 beads was loaded onto a Mono Q ion exchange column. Mono Q fractions containing stoichiometric components of PRC2 were pooled. HEK293T cells expressing epitope-tagged Histone H3 were hypotonically lysed. Washed nuclei were resuspended in micrococcal nuclease digestion buffer (20 mM HEPES, pH 7.9, 30 mM KCl, 2 mM CaCl2, 0.4 mM PMSF, 3× Protease Inhibitor Cocktail (Roche). Micrococcal nuclease (Worthingtons, 15 U/μL) was added to nuclei, followed by incubation at 30° C. for 5-30 minutes. Reactions were returned to ice, followed by addition of 3 mM EDTA, 3 mM EGTA, 120 mM NaCl, 0.1% Triton. Nuclei were dounced (Wheaton A×10), followed by centrifugation 15K rpm in SS34. FLAG M2 beads were incubated with clarified supernatant at 4° C. Washed beads (150 mM KCl) were eluted with 3× FLAG peptide ([…]). DNA from M2 FLAG eluate fractions was resolved by gel electrophoresis for estimation of chromatin lengths. Fractions of similar chromatin (DNA) lengths were pooled and dialyzed (20 mM HEPES, pH 7.9, 10 mM KCl, 10% Glycerol, 0.4 mM PMSF, 0.5 mM DTT). Purified PRC2, peptides, and chromatin substrates were added to reaction buffer (50 mM HEPES, pH 7.9, 0.5 mM DTT, 0.4 mM PMSF). Labeled S-adenosyl-methionine (3H-SAM) was added to reactions (225 μM), followed by incubation at 30° C. The reactions were stopped by binding to P81 filter paper (GE Health) for scintillitation counting, or the addition of SDS-PAGE for autoradiography.

PRC2 [2] = target: T1, PRC2; assay: kinetic studies of PRC2 methyltransferase assays with varying mononucleosome substrate concentrations; type: biochemical; details: initial velocity versus nucleosome substrate concentration
Experimental: Purified PRC2, peptides, and chromatin substrates were added to reaction buffer (50 mM HEPES, pH 7.9, 0.5 mM DTT, 0.4 mM PMSF). Labeled S-adenosyl-methionine (3H-SAM) was added to reactions (225 μM), followed by incubation at 30° C. The reactions were stopped by binding to P81 filter paper (GE Health) for scintillitation counting, or the addition of SDS-PAGE for autoradiography.

T1 sequence (Q15910 whole entry): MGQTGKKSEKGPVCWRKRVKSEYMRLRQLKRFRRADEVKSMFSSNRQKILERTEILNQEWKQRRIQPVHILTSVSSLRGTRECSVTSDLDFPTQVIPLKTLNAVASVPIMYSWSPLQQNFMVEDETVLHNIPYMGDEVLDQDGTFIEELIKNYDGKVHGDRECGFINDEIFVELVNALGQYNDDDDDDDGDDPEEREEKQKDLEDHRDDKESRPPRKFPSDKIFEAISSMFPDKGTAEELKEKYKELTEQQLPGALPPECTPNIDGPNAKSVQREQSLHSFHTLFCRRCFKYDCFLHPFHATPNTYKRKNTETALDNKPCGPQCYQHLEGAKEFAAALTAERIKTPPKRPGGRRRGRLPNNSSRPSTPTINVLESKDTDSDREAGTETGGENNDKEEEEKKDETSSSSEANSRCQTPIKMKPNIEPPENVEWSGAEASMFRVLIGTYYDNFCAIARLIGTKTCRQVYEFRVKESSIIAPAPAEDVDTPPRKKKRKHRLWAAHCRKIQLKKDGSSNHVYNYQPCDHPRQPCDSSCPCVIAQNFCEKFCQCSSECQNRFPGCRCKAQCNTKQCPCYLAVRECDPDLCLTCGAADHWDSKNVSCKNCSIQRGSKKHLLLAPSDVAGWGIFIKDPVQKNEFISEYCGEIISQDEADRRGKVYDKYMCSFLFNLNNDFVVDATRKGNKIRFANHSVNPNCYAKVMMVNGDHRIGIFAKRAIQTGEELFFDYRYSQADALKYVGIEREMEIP
T1 sequence (O75530 whole entry partner): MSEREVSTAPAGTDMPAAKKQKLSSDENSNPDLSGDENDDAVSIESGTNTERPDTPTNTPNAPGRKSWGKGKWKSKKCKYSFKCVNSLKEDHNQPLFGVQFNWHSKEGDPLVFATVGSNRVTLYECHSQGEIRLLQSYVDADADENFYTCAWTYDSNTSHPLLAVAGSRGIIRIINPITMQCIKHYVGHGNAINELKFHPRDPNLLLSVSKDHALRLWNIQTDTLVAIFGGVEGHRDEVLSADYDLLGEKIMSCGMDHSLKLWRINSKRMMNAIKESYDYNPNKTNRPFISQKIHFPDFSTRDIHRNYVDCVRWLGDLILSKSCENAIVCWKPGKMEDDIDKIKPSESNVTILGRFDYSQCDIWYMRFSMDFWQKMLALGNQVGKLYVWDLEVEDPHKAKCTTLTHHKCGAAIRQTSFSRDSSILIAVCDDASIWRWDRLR
T1 sequence (Q15022 whole entry partner): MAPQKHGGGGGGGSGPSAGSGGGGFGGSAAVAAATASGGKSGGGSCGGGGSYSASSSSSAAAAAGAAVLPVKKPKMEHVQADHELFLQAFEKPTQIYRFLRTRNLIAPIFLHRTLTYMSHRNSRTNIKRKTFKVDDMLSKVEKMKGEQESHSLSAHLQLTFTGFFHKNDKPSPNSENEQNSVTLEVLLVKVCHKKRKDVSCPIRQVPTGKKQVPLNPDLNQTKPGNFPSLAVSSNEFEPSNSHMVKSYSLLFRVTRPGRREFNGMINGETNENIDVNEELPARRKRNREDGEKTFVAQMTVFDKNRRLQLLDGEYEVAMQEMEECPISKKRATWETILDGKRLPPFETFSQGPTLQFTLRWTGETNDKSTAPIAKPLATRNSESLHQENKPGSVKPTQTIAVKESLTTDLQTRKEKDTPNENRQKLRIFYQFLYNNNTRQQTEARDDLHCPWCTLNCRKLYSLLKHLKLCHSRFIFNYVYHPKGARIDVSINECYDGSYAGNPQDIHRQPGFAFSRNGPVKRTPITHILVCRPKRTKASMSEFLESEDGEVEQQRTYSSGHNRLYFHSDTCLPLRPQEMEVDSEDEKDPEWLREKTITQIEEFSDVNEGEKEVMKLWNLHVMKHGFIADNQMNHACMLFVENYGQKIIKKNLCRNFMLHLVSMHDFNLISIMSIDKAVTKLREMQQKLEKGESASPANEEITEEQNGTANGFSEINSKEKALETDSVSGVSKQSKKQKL
T1 sequence (Q09028 whole entry partner): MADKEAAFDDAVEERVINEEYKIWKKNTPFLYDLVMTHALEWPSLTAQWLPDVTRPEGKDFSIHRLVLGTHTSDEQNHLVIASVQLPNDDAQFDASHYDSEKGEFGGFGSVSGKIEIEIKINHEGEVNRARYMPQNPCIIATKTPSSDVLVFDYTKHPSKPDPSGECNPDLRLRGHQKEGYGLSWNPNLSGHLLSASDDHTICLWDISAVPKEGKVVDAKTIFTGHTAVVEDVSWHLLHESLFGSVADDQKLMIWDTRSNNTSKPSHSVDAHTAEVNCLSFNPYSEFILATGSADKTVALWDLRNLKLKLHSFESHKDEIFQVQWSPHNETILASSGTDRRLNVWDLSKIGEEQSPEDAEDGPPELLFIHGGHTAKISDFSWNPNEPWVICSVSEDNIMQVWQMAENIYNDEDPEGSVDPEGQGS

K27me3: H3 peptide trimethylated at K27, allosteric activator of PRC2
effect on PRC2 activity towards mononucleosome or oligonucleosome templates (PRC2 [1]; 10 or 100 μM peptide (FIG. 2C)): strongly stimulated | effect on PRC2 activity relative to the no peptide control (PRC2 [1]): strongly stimulated

K27ac: H3 peptide (18-37) acetylated at K27
effect on apparent Vmax (PRC2 [2]): did not decrease | change in PRC2 activity on titration against K27me3 peptide (PRC2 [1]; 9:1 ratio of K27ac:K27me3 peptide (FIG. 3D)): no decrease | effect on PRC2 activity relative to the no peptide control (PRC2 [1]): little stimulation | effect on PRC2 activity on titration into reactions with constant low concentration of K27me3 peptide (PRC2 [1]; constant low K27me3 peptide (FIG. 3F)): no decrease

Lys^27 replaced by Leu: H3 peptide (18-37) containing Lys27 replaced by Leu (KQLATKAARLSAPSTGGVKK)
inhibitory effect on PRC2 in vitro (PRC2 [1]; 50 or 100 μM H3 peptide (18-37), reconstituted nucleosomes (FIGS. 5B and 5C)): no inhibitory effect

unmodified: unmodified H3 peptide (18-37)
effect on PRC2 activity relative to the no peptide control (PRC2 [1]): little stimulation
